# Source: IntAct's records for PubMed 29892012
# B1: Zinc finger protein ZXDC (Homo sapiens), Q2QGD7 (parent)
# chain: MDLPALLPAPTARGGQHGGGPGPLRRAPAPLGASPARRRLLLVRGPEDGGPGARPGEASGPSPPPAEDDSDGDSFLVLLEVPHGGAAAEAAGSQEAEPGSRVNLASRPEQGPSGPAAPPGPGVAPAGAVTISSQDLLVRLDRGVLALSAPPGPATAGAAAPRRAPQASGPSTPGYRCPEPQCALAFAKKHQLKVHLLTHGGGQGRRPFKCPLEGCGWAFTTSYKLKRHLQSHDKLRPFGCPVGGCGKKFTTVYNLKAHMKGHEQESLFKCEVCAERFPTHAKLSSHQRSHFEPERPYKCDFPGCEKTFITVSALFSHNRAHFREQELFSCSFPGCSKQYDKACRLKIHLRSHTGERPFICDSDSCGWTFTSMSKLLRHRRKHDDDRRFTCPVEGCGKSFTRAEHLKGHSITHLGTKPFECPVEGCCARFSARSSLYIHSKKHVQDVGAPKSRCPVSTCNRLFTSKHSMKAHMVRQHSRRQDLLPQLEAPSSLTPSSELSSPGQSELTNMDLAALFSDTPANASGSAGGSDEALNSGILTIDVTSVSSSLGGNLPANNSSLGPMEPLVLVAHSDIPPSLDSPLVLGTAATVLQQGSFSVDDVQTVSAGALGCLVALPMKNLSDDPLALTSNSNLAAHITTPTSSSTPRENASVPELLAPIKVEPDSPSRPGAVGQQEGSHGLPQSTLPSPAEQHGAQDTELSAGTGNFYLESGGSARTDYRAIQLAKEKKQRGAGSNAGASQSTQRKIKEGKMSPPHFHASQNSWLCGSLVVPSGGRPGPAPAAGVQCGAQGVQVQLVQDDPSGEGVLPSARGPATFLPFLTVDLPVYVLQEVLPSSGGPAGPEATQFPGSTINLQDLQ
# partner: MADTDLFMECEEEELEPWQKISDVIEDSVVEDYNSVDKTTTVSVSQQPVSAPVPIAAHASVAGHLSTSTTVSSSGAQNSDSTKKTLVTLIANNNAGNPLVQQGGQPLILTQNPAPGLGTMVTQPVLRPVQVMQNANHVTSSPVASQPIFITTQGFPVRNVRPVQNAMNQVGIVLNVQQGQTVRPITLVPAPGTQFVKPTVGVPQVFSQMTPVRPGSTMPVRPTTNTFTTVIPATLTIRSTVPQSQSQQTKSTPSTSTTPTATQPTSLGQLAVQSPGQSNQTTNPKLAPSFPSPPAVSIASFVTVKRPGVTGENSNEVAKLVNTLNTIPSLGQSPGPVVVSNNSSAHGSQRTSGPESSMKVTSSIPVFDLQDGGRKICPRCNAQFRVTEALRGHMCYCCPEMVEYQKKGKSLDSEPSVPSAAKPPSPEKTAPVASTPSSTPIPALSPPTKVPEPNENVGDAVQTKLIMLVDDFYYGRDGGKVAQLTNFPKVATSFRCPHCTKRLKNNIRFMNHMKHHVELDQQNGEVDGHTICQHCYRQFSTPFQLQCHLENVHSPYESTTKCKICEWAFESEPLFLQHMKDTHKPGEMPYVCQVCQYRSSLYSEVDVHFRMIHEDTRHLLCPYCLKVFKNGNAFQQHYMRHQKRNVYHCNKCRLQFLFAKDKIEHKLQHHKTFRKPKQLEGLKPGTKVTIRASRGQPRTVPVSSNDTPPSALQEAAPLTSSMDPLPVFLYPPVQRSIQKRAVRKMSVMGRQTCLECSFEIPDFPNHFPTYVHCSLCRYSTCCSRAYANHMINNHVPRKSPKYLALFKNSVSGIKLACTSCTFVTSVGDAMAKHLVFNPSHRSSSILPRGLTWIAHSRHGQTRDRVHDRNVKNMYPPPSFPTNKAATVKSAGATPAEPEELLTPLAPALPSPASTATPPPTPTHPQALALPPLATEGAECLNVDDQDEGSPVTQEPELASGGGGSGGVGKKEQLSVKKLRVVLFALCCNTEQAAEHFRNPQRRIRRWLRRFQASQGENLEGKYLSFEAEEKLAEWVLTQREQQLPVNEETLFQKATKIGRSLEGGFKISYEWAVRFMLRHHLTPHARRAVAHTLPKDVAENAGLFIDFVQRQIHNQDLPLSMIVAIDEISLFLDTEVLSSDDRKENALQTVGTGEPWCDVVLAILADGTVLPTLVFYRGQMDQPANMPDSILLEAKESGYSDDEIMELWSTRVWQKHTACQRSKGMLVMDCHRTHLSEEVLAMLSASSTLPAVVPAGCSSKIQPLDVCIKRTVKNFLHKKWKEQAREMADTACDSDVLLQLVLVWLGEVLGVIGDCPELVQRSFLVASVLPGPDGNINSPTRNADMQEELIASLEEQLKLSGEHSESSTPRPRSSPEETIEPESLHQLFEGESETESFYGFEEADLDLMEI
# B2: Isoform 2 of Synaptoporin (Homo sapiens), Q8TBG9-2 (parent)
# chain: MDPVSQLASAGTFRVLKEPLAFLRALELLFAIFAFATCGGYSGGLRLSVDCVNKTESNLSIDIAFAYPFRLHQVTFEVPTCEGKERQKLALIGDSSSSAEFFVTVAVFAFLYSLAATVVYIFFQNKYRENNRGPLIDFIVTVVFSFLWLVGSSAWAKGLSDVKVATDPKEVLLLMSACKQPSNKCMAIHSPVMSSLNTSVVFGFLNFILWAGNIWFVFKETGWHSSGQRYLSDPMEKHSSSYNQGGYNQDSYGSSSGYSQQASLGPTSDEFGQQPTGPTSFTNQI
# partner: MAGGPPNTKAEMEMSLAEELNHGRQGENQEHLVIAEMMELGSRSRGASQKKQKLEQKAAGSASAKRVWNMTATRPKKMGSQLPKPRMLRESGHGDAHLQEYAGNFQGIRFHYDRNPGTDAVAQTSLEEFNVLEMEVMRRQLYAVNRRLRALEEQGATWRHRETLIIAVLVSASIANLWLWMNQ
# B3: Abl interactor 2 (Homo sapiens), Q9NYB9 (parent)
# chain: MAELQMLLEEEIPGGRRALFDSYTNLERVADYCENNYIQSADKQRALEETKAYTTQSLASVAYLINTLANNVLQMLDIQASQLRRMESSINHISQTVDIHKEKVARREIGILTTNKNTSRTHKIIAPANLERPVRYIRKPIDYTILDDIGHGVKWLLRFKVSTQNMKMGGLPRTTPPTQKPPSPPMSGKGTLGRHSPYRTLEPVRPPVVPNDYVPSPTRNMAPSQQSPVRTASVNQRNRTYSSSGSSGGSHPSSRSSSRENSGSGSVGVPIAVPTPSPPSVFPAPAGSAGTPPLPATSASAPAPLVPATVPSSTAPNAAAGGAPNLADGFTSPTPPVVSSTPPTGHPVQFYSMNRPASRHTPPTIGGSLPYRRPPSITSQTSLQNQMNGGPFYSQNPVSDTPPPPPPVEEPVFDESPPPPPPPEDYEEEEAAVVEYSDPYAEEDPPWAPRSYLEKVVAIYDYTKDKEDELSFQEGAIIYVIKKNDDGWYEGVMNGVTGLFPGNYVESIMHYSE
# partner: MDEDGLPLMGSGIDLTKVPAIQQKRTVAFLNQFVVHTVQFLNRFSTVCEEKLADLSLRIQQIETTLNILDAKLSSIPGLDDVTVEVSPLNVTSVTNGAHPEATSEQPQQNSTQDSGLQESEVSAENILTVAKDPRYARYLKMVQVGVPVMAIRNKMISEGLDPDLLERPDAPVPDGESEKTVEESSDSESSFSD
# B4: Acetylcholine receptor subunit gamma (Homo sapiens), P07510 (parent)
# chain: MHGGQGPLLLLLLLAVCLGAQGRNQEERLLADLMQNYDPNLRPAERDSDVVNVSLKLTLTNLISLNEREEALTTNVWIEMQWCDYRLRWDPRDYEGLWVLRVPSTMVWRPDIVLENNVDGVFEVALYCNVLVSPDGCIYWLPPAIFRSACSISVTYFPFDWQNCSLIFQSQTYSTNEIDLQLSQEDGQTIEWIFIDPEAFTENGEWAIQHRPAKMLLDPAAPAQEAGHQKVVFYLLIQRKPLFYVINIIAPCVLISSVAILIHFLPAKAGGQKCTVAINVLLAQTVFLFLVAKKVPETSQAVPLISKYLTFLLVVTILIVVNAVVVLNVSLRSPHTHSMARGVRKVFLRLLPQLLRMHVRPLAPAAVQDTQSRLQNGSSGWSITTGEEVALCLPRSELLFQQWQRQGLVAAALEKLEKGPELGLSQFCGSLKQAAPAIQACVEACNLIACARHQQSHFDNGNEEWFLVGRVLDRVCFLAMLSLFICGTAGIFLMAHYNRVPALPFPGDPRPYLPSPD
# partner: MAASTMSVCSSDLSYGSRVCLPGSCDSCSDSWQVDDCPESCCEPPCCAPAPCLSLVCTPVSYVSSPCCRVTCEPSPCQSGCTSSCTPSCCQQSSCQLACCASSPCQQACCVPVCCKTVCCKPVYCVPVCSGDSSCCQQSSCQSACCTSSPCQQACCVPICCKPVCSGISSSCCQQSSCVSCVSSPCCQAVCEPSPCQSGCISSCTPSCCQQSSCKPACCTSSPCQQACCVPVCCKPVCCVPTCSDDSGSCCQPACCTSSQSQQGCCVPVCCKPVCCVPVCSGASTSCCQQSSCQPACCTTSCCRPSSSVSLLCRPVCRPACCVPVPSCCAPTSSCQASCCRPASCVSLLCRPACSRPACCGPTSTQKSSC
# Variants of: B1
# Conditions: with pogz_human POGZ
row,effect of a mutation on the interaction,Variant
1,with no effect,T589M

# Variants of: B2
# Conditions: with fate1_human FATE1, Q969F0
row,effect of a mutation on the interaction,Variant
1,with no effect,A115P

# Variants of: B3
# Conditions: with wasc3_human WASHC3, Q9Y3C0
row,effect of a mutation on the interaction,Variant
1,with no effect,R373C

# Variants of: B3
# Conditions: with wasc3_human WASHC3, Q9Y3C0
# Remark: another data set of the same source
row,effect of a mutation on the interaction,Variant
1,with no effect,E202K

# Variants of: B4
# Conditions: with kr107_human KRTAP10-7, P60409
row,effect of a mutation on the interaction,Variant
1,with no effect,I448T
